Results from the supplement of paper PMC10724198.
± gives the standard deviation of the averaged measurements.

Experiments:
Saccharomyces cerevisiae [1] = experiment: protein stability index of tFT-peptide fusion (C-terminal peptide) (PSI (0-1 scale)); higher = more stable (slower turnover); conditions: genetic background: wild type; temperature: 30 C
Saccharomyces cerevisiae [2] = experiment: as above
Description: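 MPS profiling in S. cerevisiae of the tFT-X12 degron library: putative degron peptides plus stable controls, 12 aa, fused to the C-terminus of a sfGFP-mCherry timer. Cells are FACS-sorted into 8 mCherry/sfGFP bins and deep-sequenced. PSI runs from 0 (unstable) to 1 (stable). Backgrounds are wild type, das1Δ and doa10Δ at 30 °C, and wild type, das1Δ, cdc34-1 and cdc53-1 at 37 °C; 2-3 technical replicates each.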

[3] = genetic background: cdc34-1, temperature: 37 C
[4] = genetic background: cdc53-1, temperature: 37 C
[5] = genetic background: das1 deletion, temperature: 30 C
[6] = genetic background: das1 deletion, temperature: 37 C
[7] = genetic background: doa10 deletion, temperature: 30 C
[8] = genetic background: wild type, temperature: 30 C
[9] = genetic background: wild type, temperature: 37 C
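Further: PSI is a weighted mean of sequencing reads over stability bins, variants kept only with over 10 reads, mCherry proximal and sfGFP distal, peptide attached via GGGS linker.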

Row | Sequence | protein stability index (Saccharomyces cerevisiae [1]) | protein stability index (Saccharomyces cerevisiae [2]; [3]) | protein stability index (Saccharomyces cerevisiae [2]; [4]) | protein stability index (Saccharomyces cerevisiae [2]; [5]) | protein stability index (Saccharomyces cerevisiae [2]; [6]) | protein stability index (Saccharomyces cerevisiae [2]; [7]) | protein stability index (Saccharomyces cerevisiae [2]; [8]) | protein stability index (Saccharomyces cerevisiae [2]; [9])
1 | FVICGMLVHWMV | 0.434 ± 0.01 | 0.479 ± 0.04 | 0.536 ± 0.084 | 0.376 ± 0.028 | 0.58244 ± 0.00049 | 0.321 ± 0.0041 | 0.344 ± 0.02 | 0.5356 ± 0.0023
2 | FVLLCVLEFVAG | 0.27 ± 0.008 | 0.104 ± 0.027 | 0.166 ± 0.011 | 0.173 ± 0.025 | 0.299 ± 0.0013 | 0.131 ± 0.004 | 0.151 ± 0.036 | 0.253 ± 0.0087
3 | FVVFLLFFMLYH | 0.379 ± 0.043 | 0.312 ± 0.052 | 0.428 ± 0.019 | 0.317 ± 0.048 | 0.4366 ± 0.0024 | 0.311 ± 0.004 | 0.305 ± 0.025 | 0.411 ± 0.0096
4 | FVVFYFFLLFGV | 0.3283 ± 0.00033 | 0.318 ± 0.032 | 0.379 ± 0.0099 | 0.298 ± 0.034 | 0.454 ± 0.023 | 0.289 ± 0.006 | 0.264 ± 0.025 | 0.4219 ± 0.0009
5 | FVVVCWFWGGGF | 0.425 ± 0.026 | 0.3213 ± 0.0031 | 0.406 ± 0.0042 | 0.283 ± 0.036 | 0.465 ± 0.013 | 0.257 ± 0.012 | 0.27 ± 0.048 | 0.429 ± 0.021
6 | FWMLCFLCRLTV | 0.32 ± 0.03 | 0.3236 ± 0.0019 | 0.338 ± 0.0098 | 0.306 ± 0.043 | 0.459 ± 0.011 | 0.2213 ± 0.0021 | 0.221 ± 0.026 | 0.361 ± 0.0071
7 | FWVNFLFVLFIL | 0.296 ± 0.049 | 0.257 ± 0.023 | 0.233 ± 0.018 | 0.261 ± 0.036 | 0.4 ± 0.027 | 0.263 ± 0.005 | 0.197 ± 0.022 | 0.307 ± 0.02
8 | FYACRLWLVSVR | 0.29 ± 0.0033 | 0.161 ± 0.027 | 0.196 ± 0.011 | 0.191 ± 0.023 | 0.313 ± 0.0039 | 0.158 ± 0.007 | 0.184 ± 0.021 | 0.269 ± 0.0029
9 | GACRVSSCVVVC | 0.4477 ± 0.0044 | 0.504 ± 0.011 | 0.548 ± 0.024 | 0.37 ± 0.032 | 0.571 ± 0.0072 | 0.316 ± 0.006 | 0.358 ± 0.014 | 0.526 ± 0.0059
10 | GAFAGDVWRCVV | 0.297 ± 0.024 | 0.627 ± 0.02 | 0.755 ± 0.02 | 0.653 ± 0.025 | 0.778 ± 0.014 | 0.154 ± 0.0073 | 0.165 ± 0.026 | 0.2682 ± 0.0021
